Patent publication US20100260677A1, “METHODS AND SYSTEMS FOR TREATMENT AND/OR DIAGNOSIS” (Massachusetts Institute of Technology, priority 2009, published 2010)
Positions of bridges follow the written chain, without caps; N, C: chain ends. Non-standard residues stand in square brackets, D forms with d. No end group written: not given here. Hyp = O=C(O)[C@@H]1C[C@@H](O)CN1; cY = chlorotyrosine; Ahx = NCCCCCC(=O)O

What was measured:
MDA-MB-435 tumors [1] = test: Nanoworm receiver homing to externally heated tumors; format: in vivo, mice; settings: 24 hours
Description: (§1) Quantifying NW homing to tumors: Mixtures of NIR-fluorophore-labeled, targeted and control NWs (bearing VT750 and VT680 or VT680 and VT750, respectively) were co-adminstered intravenously in PBS (2 mg Fe/kg) to tumor-bearing nu/nu mice to provide an internal control reference for coagulation-specific NW homing. At 24 hours post-NW injection, mice were sacrificed and organs were analyzed for both NIR-fluorophores (LI-COR Odyssey Infrared Imaging System). For integrated nanoparticle system characterization, mice were additionally imaged under isofluorane anaesthetic before euthanization using a whole animal fluorescence reflectance imaging system (Xenogen, IVIS Imaging System) to visualize the specificity of NW homing to tumors. […] For initial characterization, levels of targeted and control NW homing were plotted by comparing the average NW fluorescence in heated tumors versus unheated tumors (n=4 mice at each temperature). For integrated network evaluation, levels were plotted by comparing the average targeted and untargeted NW fluorescence in irradiated tumors versus un-irradiated tumors (n=4 mice for all conditions).
Having observed that external heating of tumors produced localized coagulation, this response was utilized in an assay to assess the ability of receivers to target tumor coagulation prior to integrating them with signaling components. […]

MDA-MB-435 tumors [2] = test: Integrated PEG-NR signaling / FXIII-NW receiver communication, NIR fluorescence imaging; format: in vivo, mice; settings: PEG-NRs 10 mg Au/kg, 72 h later NWs i.v. + 810 nm ~0.75 W/cm^2 20 min; imaging at 96 hours
Description: as §1
PEG-NRs (or saline) were intravenously-injected into mice bearing bilateral MDA-MB-435 tumors. […]

MDA-MB-435 tumors [3] = test: Small molecule vascular disrupting agents: induction of coagulation in tumors (fibrinogen/albumin tropism); format: in vivo, mice; settings: i.p. DMXAA 20 mg/kg or colchicine 1 mg/kg; 24 hours
Description: Mice bearing MDA-MB-435 tumors were intravenously injected with a mixture of fibrinogen and albumin that had been labeled with unique near-infrared fluorophores (VT750 and VT680, respectively). Immediately after injection, mice were intraperitoneally injected with DMXAA (20 mg/kg) in 200 microliters of sodium bicarbonate buffer or vehicle. At 24 hours after injections, mice were sacrificed and organs removed for fluorescent quantification of protein tropism to tumors (* indicates p=0.014; n=6). […] Mice bearing bilateral MDA-MB-435 tumors were intravenously injected with a mixture of fibrinogen and albumin that had been labeled with unique near-infrared fluorophores (VT750 and VT680, respectively). […] At 24 hours after injections, mice were sacrificed and organs removed for fluorescent quantification of protein tropism to tumors.

ICAM-1 = test: Induction of ICAM-1 expression in HUVECs (immuno-staining); format: cell-based, Human; settings: 10 ng/ml overnight
Description: This example illustrates the induction of ICAM-1 expression in HUVECs. […] Human Umbilical Vein Endothelial Cells (HUVECs) were cultured on slides coated with gelatin in Medium 200 supplemented with LSGS (Cascade Biologics/Invitrogen). One day after plating, cells were treated with 10 ng/ml TNF-alpha or vehicle alone overnight. The next day cells were fixed and immuno-stained for ICAM-1 expression (antibody from Cell Signaling).

MDA-MB-435 tumor = test: Autonomous communication between tTF signaling components and FXIII-NW receivers; format: in vivo, mice; settings: tTF-RGD+FXIII-NWs plus heparin 800 units/kg i.v. + 500 units/kg i.p.
Description: For autonomously-communicating nanosystems, NIR-fluorophore-labeled peptide-bearing NWs (bearing VT750 fluorophores) were intravenously (2 mg Fe/kg) in PBS to unanaesthetized MDA-MB-435 tumor-bearing nu/nu mice alone or alongside various tTF signaling components (25 micrograms). At 24 hours post-NW injection, the mice were sacrificed and organs were analyzed for NIR receiver fluorescence (LI-COR Odyssey Infrared Imaging System). For intraoperative fluorescent tumor imaging, mice were anaesthesized and tumours were surgically exposed to reveal detailed tumor fluorescence (LI-COR). The levels of NW homing to tumors were plotted by comparing the average NW fluorescence in fully-excised tumours (n=4 mice at each condition). For whole animal organ distribution, tTF-RGD signaling components were administered intraperitoneally (25 micrograms) and FXIII-NWs were administered intravenously (2 mg Fe/kg) to unanaesthetized mice bearing an MDA-MB-435 tumor.
Nu/nu mice bearing a single MDA-MB-435 tumor were intravenously injected with communicating (tTF-RGD+FXIII-NWs) or control (tTF-RGD+control-NWs) systems, FXIII-NWs alone, or NWs targeted by the peptide used to direct signaling component tumor homing (1 mg/kg tTF-RGD). At 24 hours post-injection, tumors were surgically exposed for fluorescent intraoperative imaging of NW homing. […]

[4] = biological target: fibrin (polymerized fibrin deposited in heated tumors of mice) (mouse, UniProt E9PV24 37-789; Q8K0E8 35-481; Q8VCM7 26-436, limits assumed); test: cell-based or functional assay
Chain of fibrin (polymerized fibrin deposited in heated tumors of mice) (E9PV24 37-789 limits assumed, chain 1 of 3): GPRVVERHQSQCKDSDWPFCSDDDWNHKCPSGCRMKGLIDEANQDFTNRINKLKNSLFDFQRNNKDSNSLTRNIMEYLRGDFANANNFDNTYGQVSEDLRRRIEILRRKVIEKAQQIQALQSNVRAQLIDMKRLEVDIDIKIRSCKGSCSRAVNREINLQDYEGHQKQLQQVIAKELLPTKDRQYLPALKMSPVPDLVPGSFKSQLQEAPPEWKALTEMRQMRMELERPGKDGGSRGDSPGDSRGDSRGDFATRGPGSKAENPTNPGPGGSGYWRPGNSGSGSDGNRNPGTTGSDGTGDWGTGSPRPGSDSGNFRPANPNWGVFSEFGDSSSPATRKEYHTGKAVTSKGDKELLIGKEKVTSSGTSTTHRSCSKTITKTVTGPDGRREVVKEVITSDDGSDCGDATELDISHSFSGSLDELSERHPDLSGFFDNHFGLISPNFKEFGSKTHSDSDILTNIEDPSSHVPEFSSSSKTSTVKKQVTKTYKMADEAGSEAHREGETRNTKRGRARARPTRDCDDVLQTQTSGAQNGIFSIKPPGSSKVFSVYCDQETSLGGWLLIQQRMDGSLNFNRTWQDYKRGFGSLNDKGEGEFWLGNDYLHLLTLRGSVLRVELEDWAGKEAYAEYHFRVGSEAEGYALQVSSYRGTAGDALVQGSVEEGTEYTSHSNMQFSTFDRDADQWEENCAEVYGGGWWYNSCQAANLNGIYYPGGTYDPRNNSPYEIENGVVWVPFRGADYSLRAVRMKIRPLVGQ
Chain of fibrin (polymerized fibrin deposited in heated tumors of mice) (Q8K0E8 35-481 limits assumed, chain 2 of 3): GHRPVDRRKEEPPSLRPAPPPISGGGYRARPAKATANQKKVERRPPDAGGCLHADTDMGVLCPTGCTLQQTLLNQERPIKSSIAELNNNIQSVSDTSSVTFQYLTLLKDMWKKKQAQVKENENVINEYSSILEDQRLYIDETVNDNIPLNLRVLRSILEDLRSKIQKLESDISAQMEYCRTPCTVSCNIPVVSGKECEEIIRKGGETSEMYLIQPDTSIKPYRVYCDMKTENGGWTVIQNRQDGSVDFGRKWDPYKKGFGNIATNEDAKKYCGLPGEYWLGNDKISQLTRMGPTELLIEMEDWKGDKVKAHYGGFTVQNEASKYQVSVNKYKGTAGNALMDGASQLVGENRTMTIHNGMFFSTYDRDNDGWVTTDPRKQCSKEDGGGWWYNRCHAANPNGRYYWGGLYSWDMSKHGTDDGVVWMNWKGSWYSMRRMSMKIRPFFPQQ
Chain of fibrin (polymerized fibrin deposited in heated tumors of mice) (Q8VCM7 26-436 limits assumed, chain 3 of 3): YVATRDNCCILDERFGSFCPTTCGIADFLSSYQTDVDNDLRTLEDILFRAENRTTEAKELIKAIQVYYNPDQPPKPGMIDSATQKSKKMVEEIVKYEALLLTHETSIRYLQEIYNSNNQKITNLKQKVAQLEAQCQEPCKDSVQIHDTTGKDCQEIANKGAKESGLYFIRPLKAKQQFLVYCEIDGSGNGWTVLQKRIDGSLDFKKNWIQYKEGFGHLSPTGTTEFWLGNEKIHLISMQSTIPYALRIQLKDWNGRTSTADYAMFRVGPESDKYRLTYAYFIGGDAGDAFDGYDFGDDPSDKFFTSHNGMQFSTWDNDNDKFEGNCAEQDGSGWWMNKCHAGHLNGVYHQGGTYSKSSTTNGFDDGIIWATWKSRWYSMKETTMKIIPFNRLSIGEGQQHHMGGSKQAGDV

[5] = biological target: T1, coagulation transglutaminase Factor XIII (mouse, UniProt Q8BH61 39-732); test: cell-based or functional assay
T1 sequence (looked up): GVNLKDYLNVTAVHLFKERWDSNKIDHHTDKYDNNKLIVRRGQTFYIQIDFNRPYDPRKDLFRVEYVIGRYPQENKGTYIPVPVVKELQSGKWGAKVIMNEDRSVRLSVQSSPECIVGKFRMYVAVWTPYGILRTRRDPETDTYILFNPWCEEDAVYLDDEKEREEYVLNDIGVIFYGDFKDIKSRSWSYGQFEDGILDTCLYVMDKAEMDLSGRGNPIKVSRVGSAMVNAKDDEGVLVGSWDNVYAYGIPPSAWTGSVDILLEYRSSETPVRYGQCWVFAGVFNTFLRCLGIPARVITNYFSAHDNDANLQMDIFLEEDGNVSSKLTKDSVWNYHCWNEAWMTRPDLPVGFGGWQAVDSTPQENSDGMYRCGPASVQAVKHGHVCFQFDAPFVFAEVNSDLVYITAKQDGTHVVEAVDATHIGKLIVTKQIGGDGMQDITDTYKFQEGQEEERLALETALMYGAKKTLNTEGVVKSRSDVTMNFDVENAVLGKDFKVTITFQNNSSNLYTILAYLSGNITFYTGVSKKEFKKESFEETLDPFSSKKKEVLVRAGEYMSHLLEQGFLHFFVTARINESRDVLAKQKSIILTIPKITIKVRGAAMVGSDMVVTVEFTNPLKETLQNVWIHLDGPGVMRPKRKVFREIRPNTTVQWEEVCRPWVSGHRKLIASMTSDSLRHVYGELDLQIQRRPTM

In the case of “FXIII-NWs: magnetofluorescent iron oxide nanoworms derivatized with a peptide substrate for coagulation transglutaminase Factor XIII (SEQ ID NO: 2) (GNQEQVSPLTLLK[Ahx]CK-Fluorescein; not fully specified (residue 15))”, the “histopathological distribution in heated tumors compared with controls” value (MDA-MB-435 tumors [1]; heated tumors) is reported as “marked extravasation and interstitial spreading”, the “increase in tumor targeting, heated compared to unheated tumors” value (MDA-MB-435 tumors [1]; one tumor heated at 45° C. in water bath 20 min) is reported as “nearly an order of magnitude” and the “increase in accumulation in NR-heated tumors above unirradiated contralateral tumors and tumors on saline-injected mice” value (MDA-MB-435 tumors [2]) is reported as “over an order of magnitude”.

With `Cc1ccc2c(=O)c3cccc(CC(=O)O)c3oc2c1C` [DMXAA, 5,6-dimethylxanthenone-4-acetic acid] the “induction of coagulation in tumors” value (MDA-MB-435 tumors [3]) was “specifically induced coagulation in tumors”.

TNF-alpha was tested, and the “ICAM-1 expression on the cell surface” value (ICAM-1) was “upregulation of ICAM-1 on the cell surface”.

With heparin the “amplified vascular targeting when coagulation inhibitor administered alongside the integrated system” value (MDA-MB-435 tumor) was “absent”.

B1: fibrin-binding peptide Ac-d-d-d-G-Y-e-C-hyP-cY-G-L-C-Y-I-Q-K-Fluorescein (peptide)
peptide: Ac-[dD][dD][dD]GY[dE]C[Hyp][cY]GLCYIQK-Fluorescein
modifications: disulfide 7-12 (inferred); not fully specified; printed as Ac-d-d-d-G-Y-e-C-hyP-cY-G-L-C-Y-I-Q-K-Fluorescein; also: attached to nanoworm via the Lys with NHS-PEO5-NHS linker
For B1, the “targeting of fibrin-binding receiving NWs to heated tumors against unheated tumors (in vivo, NIR fluorescence)” value [4] was roughly 10 fold.

GNQEQVSPLTLLK[Ahx]CK-Fluorescein (also: coupled through the exogenous Cys to nanoworm or liposome carrier) was tested, and the “accumulation of FXIII-substrate receiving NWs in tumors heated to 45 C against unheated tumors (in vivo, NIR fluorescence at 24 hours)” value [5] was roughly 10 fold, the “accumulation of FXIII-targeted NWs in nanorod-heated tumors against unirradiated contralateral tumors and tumors on saline-injected mice (in vivo, whole-animal fluorescence)” value [5] was greater than 10 fold and the “doxorubicin accumulation in tumors heated to 45 C against unheated controls, FXIII-substrate liposomes (in vivo)” value [5] was greater than 40 fold. The “doxorubicin accumulation in tumors, NR signaling components plus FXIII-LP receivers against the LPs alone (in vivo)” value [5] was greater than 40 fold.
